Laboratory results published in the supplement of paper PMC7125110.
± gives the standard error. Variants at the floor of the assay were thinned out.

B1: glmS ribozyme (parent)
chain: AUAAAAGCGCCAGAACUACAGAAAUGUAGUUGACGAGGAGGAGGUUUAUCGAAUUUUCGGCGGAUGCCUCCAAA

Key:
Conditions in all cases: with glucosamine-6-phosphate
glucosamine-6-phosphate [1] = variants of: B1; test: self-cleavage kobs at 40 uM GlcN6P; higher = faster cleavage; RNA array
Method in brief: (§1)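 Using a hybridised Cy3 probe at 37 °C, barcoded ribozyme variants transcribed in situ by E. coli RNA polymerase on sequenced MiSeq chips were monitored across tiles imaged over ~14 h. The flow contained glucosamine-6-phosphate from 40 μM to 10 mM in HEPES/KCl/Mg(OAc)2 buffer. Signals were normalised to baseline and to non-cleaving reference variants before per-tile medians were fit to one- or two-exponential decays to yield kobs. Weighted Michaelis–Menten fits across concentrations gave kcat and KM.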

glucosamine-6-phosphate [2] = variants of: B1; test: self-cleavage kobs at 160 uM GlcN6P; higher = faster cleavage; RNA array
Method in brief: as §1

glucosamine-6-phosphate [3] = variants of: B1; test: self-cleavage kobs at 640 uM GlcN6P; higher = faster cleavage; RNA array
Method in brief: as §1

glucosamine-6-phosphate [4] = variants of: B1; test: self-cleavage kobs at 2500 uM GlcN6P; higher = faster cleavage; RNA array
Method in brief: as §1

glucosamine-6-phosphate [5] = variants of: B1; test: self-cleavage kobs at 10000 uM GlcN6P; higher = faster cleavage; RNA array
Method in brief: as §1

Variant | self-cleavage kobs at 40 uM GlcN6P (glucosamine-6-phosphate [1]) | self-cleavage kobs at 160 uM GlcN6P (glucosamine-6-phosphate [2]) | self-cleavage kobs at 640 uM GlcN6P (glucosamine-6-phosphate [3]) | self-cleavage kobs at 2500 uM GlcN6P (glucosamine-6-phosphate [4]) | self-cleavage kobs at 10000 uM GlcN6P (glucosamine-6-phosphate [5])
C10U G13U | < 1e-05 s⁻¹ | < 1e-05 s⁻¹ | < 1e-05 s⁻¹ | < 1e-05 s⁻¹ | < 1e-05 s⁻¹
A15C U49C | < 1e-05 s⁻¹ | < 1e-05 s⁻¹ | < 1e-05 s⁻¹ | < 1e-05 s⁻¹ | < 1e-05 s⁻¹
C58U G62A | < 1e-05 s⁻¹ | < 1e-05 s⁻¹ | < 1e-05 s⁻¹ | < 1e-05 s⁻¹ | < 1e-05 s⁻¹
A12C U45G | 0.000128 ± 4.1e-05 s⁻¹ |  |  |  | 0.012 ± 0.004 s⁻¹
C10G U69A | < 1e-05 s⁻¹ |  |  |  | 
C8A G40A | < 1e-05 s⁻¹ |  | < 1e-05 s⁻¹ | < 1e-05 s⁻¹ | 
G7C G59C | < 1e-05 s⁻¹ | < 1e-05 s⁻¹ | < 1e-05 s⁻¹ | < 1e-05 s⁻¹ | < 1e-05 s⁻¹
A33C G43C | < 1e-05 s⁻¹ | < 1e-05 s⁻¹ | < 1e-05 s⁻¹ | < 1e-05 s⁻¹ | < 1e-05 s⁻¹
U30C G38U G43C U46G | < 1e-05 s⁻¹ |  | < 1e-05 s⁻¹ |  | < 1e-05 s⁻¹
A14U G37U G59U C61A | < 1e-05 s⁻¹ |  |  |  | 
G38U C70U C71G | 8.76e-05 ± 2.7e-05 s⁻¹ |  |  |  | 
C8U C50A G51A U69G | 0.00046 ± 0.00016 s⁻¹ |  |  |  | 0.000709 ± 0.00014 s⁻¹
A14C G29A A33U | < 1e-05 s⁻¹ | < 1e-05 s⁻¹ |  | < 1e-05 s⁻¹ | 
G9A C16G | < 1e-05 s⁻¹ | < 1e-05 s⁻¹ | < 1e-05 s⁻¹ | < 1e-05 s⁻¹ | 
A6U G35U | < 1e-05 s⁻¹ | < 1e-05 s⁻¹ | < 1e-05 s⁻¹ | < 1e-05 s⁻¹ | < 1e-05 s⁻¹
C8A G62C | < 1e-05 s⁻¹ |  | < 1e-05 s⁻¹ | < 1e-05 s⁻¹ | < 1e-05 s⁻¹
A6C A36C | < 1e-05 s⁻¹ | < 1e-05 s⁻¹ |  |  | < 1e-05 s⁻¹
G37A U49A | < 1e-05 s⁻¹ |  | < 1e-05 s⁻¹ | < 1e-05 s⁻¹ | 
G59C | < 1e-05 s⁻¹ | < 1e-05 s⁻¹ | < 1e-05 s⁻¹ |  | < 1e-05 s⁻¹
